Reference: patent CN109485724A (FUZHOU MAIXIN BIOTECHNOLOGY DEV CO LTD, dated 2019)

Target: T1, 重组Desmin蛋白 (人Desmin α螺旋杆状区第109位至第412位氨基酸片段 + 组氨酸标签, 大肠杆菌表达) (human, UniProt P17661 109-412)
T1 construct: range 109-412; Expressed in E. coli Rosetta from pET-28a(+) (EcoRI/HindIII), solubilised from inclusion bodies in 8 M urea and purified on Ni-NTA; also called 重组Desmin蛋白片段; 免疫原; not shown: histidine tag from vector pET28a(+)
Experiment: indirect ELISA on coated recombinant Desmin; affinity constant calculated from the antibody concentration at half of the plateau OD450

T1 sequence (P17661 109-412): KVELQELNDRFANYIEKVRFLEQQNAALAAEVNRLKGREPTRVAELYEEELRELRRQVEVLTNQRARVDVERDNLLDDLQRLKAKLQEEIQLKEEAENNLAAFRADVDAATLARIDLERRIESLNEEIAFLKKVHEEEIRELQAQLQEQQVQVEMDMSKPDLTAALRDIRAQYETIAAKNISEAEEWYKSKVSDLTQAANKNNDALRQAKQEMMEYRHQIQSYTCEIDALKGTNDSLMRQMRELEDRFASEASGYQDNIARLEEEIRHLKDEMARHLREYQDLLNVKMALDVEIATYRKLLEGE

- Ka: 6.82e+09 M⁻¹
B1: 抗Desmin蛋白单克隆抗体(14G1C12) (antibody, V domains shown)
VH: QIQLVQSGPELKKPGETVKISCKASGYTFTNYGMNWVKQAPGKGLKWMGWINTNTGEPTYAEEFKGRFAFSLETSASTAYLQINNLKNEDTATYFCAREFSSWGQGTLVTVSA
VL: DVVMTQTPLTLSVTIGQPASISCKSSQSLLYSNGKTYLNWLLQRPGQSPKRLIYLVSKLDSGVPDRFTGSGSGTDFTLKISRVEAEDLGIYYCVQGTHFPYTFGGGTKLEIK
notes: also called Desmin单克隆抗体; 14G1C12的Desmin
